Data taken from PMC5623714, “Cofactor Tail Length Modulates Catalysis of Bacterial F420-Dependent Oxidoreductases” (Frontiers in Microbiology, 2017).
One block for each molecule: values may come before it.

Experiments:
[1] = target: T1, MSMEG_3380 (promiscuous F420H2-dependent reductase, FDOR-B) (Mycolicibacterium smegmatis, UniProt A0QXP8); test: intrinsic tryptophan fluorescence quenching; assay type: binding; details: read-out: F420 Kd
T1 construct: recombinant in E. coli BL21(DE3), Ni-NTA purified; dimer
Text: intrinsic tryptophan fluorescence quenching on MSMEG_3380 (promiscuous F420H2-dependent reductase, FDOR-B)

[2] = target: T2, Fgd (F420-dependent glucose 6-phosphate dehydrogenase MSMEG_0777) (Mycolicibacterium smegmatis, UniProt A0QQJ4); test: intrinsic tryptophan fluorescence quenching; assay type: binding
T2 construct: recombinant in E. coli BL21(DE3), Ni-NTA purified; LLHT family
T2 sequence (A0QQJ4 2-336): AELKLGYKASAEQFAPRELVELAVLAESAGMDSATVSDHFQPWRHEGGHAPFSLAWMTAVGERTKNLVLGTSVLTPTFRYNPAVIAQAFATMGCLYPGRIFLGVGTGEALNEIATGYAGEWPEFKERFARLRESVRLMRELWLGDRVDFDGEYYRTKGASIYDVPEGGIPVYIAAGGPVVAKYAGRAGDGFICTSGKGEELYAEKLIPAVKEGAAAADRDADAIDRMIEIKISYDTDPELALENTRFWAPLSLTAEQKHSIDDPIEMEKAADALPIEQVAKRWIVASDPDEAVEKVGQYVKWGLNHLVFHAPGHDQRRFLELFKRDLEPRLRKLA
Text: intrinsic tryptophan fluorescence quenching on Fgd (F420-dependent glucose 6-phosphate dehydrogenase MSMEG_0777)

[3] = target: T3, MSMEG_2027 (F420H2-dependent quinone reductase, FDOR-A) (Mycolicibacterium smegmatis, UniProt A0QU01); test: intrinsic tryptophan fluorescence quenching; assay type: binding; details: read-out: F420 Kd
T3 construct: recombinant in E. coli BL21(DE3), Ni-NTA purified; monomer
T3 sequence (A0QU01 1-140): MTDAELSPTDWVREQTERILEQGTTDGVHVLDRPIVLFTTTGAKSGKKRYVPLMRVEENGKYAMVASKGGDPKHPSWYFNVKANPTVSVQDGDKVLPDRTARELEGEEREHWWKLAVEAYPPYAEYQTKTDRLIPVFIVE
Text: intrinsic tryptophan fluorescence quenching on MSMEG_2027 (F420H2-dependent quinone reductase, FDOR-A)

purified protein [4] = substrate: O=C1C=CCCC1; test: purified protein; assay type: biochemical, Mycolicibacterium smegmatis; details: 50 μM long-chain F420H2 (mycobacterial), 200 mM TrisHCl, 0.1% Triton X-100, pH 8.0
purified protein [5] = substrate: CC1=CC(=O)c2ccccc2C1=O; test: purified protein; assay type: biochemical, Mycolicibacterium smegmatis; details: 50 μM long-chain F420H2 (mycobacterial), 200 mM TrisHCl, 0.1% Triton X-100, pH 8.0

Kd [1]: 570 ± 50 nM
Kd [2]: 4180 ± 290 nM
Kd [3]: 1430 ± 120 nM
Molecule: C[C@H](OP(=O)(O)OC[C@@H](O)[C@@H](O)[C@@H](O)Cn1c2nc(=O)[nH]c(=O)c-2cc2ccc(O)cc21)C(=O)N[C@@H](CCC(=O)N[C@@H](CCC(=O)O)C(=O)O)C(=O)O [F420-2, short-chain F420]

B1: MSMEG_3380 (promiscuous F420H2-dependent reductase, FDOR-B) (Mycolicibacterium smegmatis MC2 155) (protein)
chain: MVAVPEGYESLLERPLYGHLATVRPDGTPQVNAMWFAWDGEVLRFTHTTKRQKYRNIKANPAVAMSVIDPDNPYRYLEVRGLVEDIVPDPTGAFYLKLNDRYDGPLTEPPADKADRVIIVVRPTAFSKQ
notes: recombinant in E. coli BL21(DE3), Ni-NTA purified; dimer
Km (purified protein [4]): 259 ± 41 µM
kcat (purified protein [4]): 0.025 ± 0.001 s⁻¹
kcat/Km (purified protein [4]): 96 M⁻¹ s⁻¹

B2: MSMEG_2027 (F420H2-dependent quinone reductase, FDOR-A) (Mycolicibacterium smegmatis MC2 155) (protein)
chain: MTDAELSPTDWVREQTERILEQGTTDGVHVLDRPIVLFTTTGAKSGKKRYVPLMRVEENGKYAMVASKGGDPKHPSWYFNVKANPTVSVQDGDKVLPDRTARELEGEEREHWWKLAVEAYPPYAEYQTKTDRLIPVFIVE
notes: recombinant in E. coli BL21(DE3), Ni-NTA purified; monomer
Km (purified protein [5]): 25.6 ± 9.2 µM
kcat (purified protein [5]): 0.084 ± 0.007 s⁻¹
kcat/Km (purified protein [5]): 3280 M⁻¹ s⁻¹
